{"source": "paper PMC7586803", "about": "“Click‐Chemistry (CuAAC) Trimerization of an αvβ6 Integrin Targeting Ga‐68‐Peptide: Enhanced Contrast for in‐Vivo PET Imaging of Human Lung Adenocarcinoma Xenografts” (Chembiochem, 2020)", "key": {"[1]": {"assay": "physchem", "format": "physicochemical", "settings": "pH 7.4", "experimental": "To determine the n‐octanol/PBS distribution coefficients (log D 7.4), 650 μL octan‐1‐ol and 650 μL phosphate‐buffered saline (PBS, pH 7.4) were combined in a 1.5 mL Eppendorf tube. Approximately 0.5 MBq of the radiolabeled compound was added and vortexed for 2 min at 2850 rpm using a Vortex Genie2 (Scientific Industries). The samples were centrifuged (11 500 g, 10 min), after which 100 μL of the organic phase and 10 μL of the aqueous phase were taken out and the activities of the aliquots were quantified in a γ‐counter."}, "[2]": {"assay": "in vivo", "settings": "female, CB17 SCID, mouse, iv, 120 pmol, total radioactivity", "experimental": "(§1) Mice were used for biodistribution or PET when tumors had grown to a diameter of 8–10 mm (4–5 weeks after inoculation). β6 Integrin immunohistochemistry (IHC) was performed as described before.37\n(§2) For biodistribution studies, the mice were administered approximately 120 pmol (3–8 MBq, depending on radiolabeling yield and decay) of the radiopharmaceuticals into the tail vein and allowed to wake up with access to food and water. […] Animals were sacrificed 90 min after injection, blood was immediately taken from the heart with a syringe, and the organs of interest (heart, lung, liver, spleen, pancreas, stomach (empty), small intestine (empty), large intestine (empty), kidneys, adrenals, muscle, tongue, tumor, tail) were dissected. The activity in weighed tissue samples was quantified by using a γ‐counter. Injected dose per gram tissue (%ID/g) was calculated from the organ weights and counted activities."}, "[3]": {"target": "T1, αvβ6 integrin (Homo sapiens, UniProt P06756+P18564)", "T1 sequence (P06756 31-992 limits assumed)": "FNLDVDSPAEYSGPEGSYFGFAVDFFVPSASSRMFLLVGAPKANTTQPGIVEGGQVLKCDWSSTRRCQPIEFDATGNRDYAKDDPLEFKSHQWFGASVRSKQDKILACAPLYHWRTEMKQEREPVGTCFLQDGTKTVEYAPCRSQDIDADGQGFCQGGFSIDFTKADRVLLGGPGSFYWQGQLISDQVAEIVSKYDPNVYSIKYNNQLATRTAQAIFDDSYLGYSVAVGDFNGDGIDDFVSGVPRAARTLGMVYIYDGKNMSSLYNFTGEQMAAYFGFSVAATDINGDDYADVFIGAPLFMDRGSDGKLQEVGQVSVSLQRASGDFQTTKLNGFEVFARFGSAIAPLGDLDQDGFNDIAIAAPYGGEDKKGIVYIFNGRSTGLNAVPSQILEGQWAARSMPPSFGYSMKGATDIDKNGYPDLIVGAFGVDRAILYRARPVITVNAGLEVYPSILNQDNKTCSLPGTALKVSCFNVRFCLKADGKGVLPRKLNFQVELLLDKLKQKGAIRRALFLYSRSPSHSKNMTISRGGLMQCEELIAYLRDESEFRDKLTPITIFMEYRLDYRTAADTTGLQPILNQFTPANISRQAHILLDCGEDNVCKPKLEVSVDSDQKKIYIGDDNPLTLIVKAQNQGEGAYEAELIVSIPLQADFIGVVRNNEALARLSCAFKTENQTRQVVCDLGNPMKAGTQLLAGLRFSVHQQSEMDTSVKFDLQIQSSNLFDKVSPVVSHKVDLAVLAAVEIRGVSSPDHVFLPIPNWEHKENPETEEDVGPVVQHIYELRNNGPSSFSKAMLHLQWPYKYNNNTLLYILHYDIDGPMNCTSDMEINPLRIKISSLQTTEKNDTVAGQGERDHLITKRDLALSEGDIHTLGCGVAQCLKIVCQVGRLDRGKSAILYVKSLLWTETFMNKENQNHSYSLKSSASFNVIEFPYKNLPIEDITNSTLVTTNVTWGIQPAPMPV", "T1 sequence (P18564 22-707 limits assumed)": "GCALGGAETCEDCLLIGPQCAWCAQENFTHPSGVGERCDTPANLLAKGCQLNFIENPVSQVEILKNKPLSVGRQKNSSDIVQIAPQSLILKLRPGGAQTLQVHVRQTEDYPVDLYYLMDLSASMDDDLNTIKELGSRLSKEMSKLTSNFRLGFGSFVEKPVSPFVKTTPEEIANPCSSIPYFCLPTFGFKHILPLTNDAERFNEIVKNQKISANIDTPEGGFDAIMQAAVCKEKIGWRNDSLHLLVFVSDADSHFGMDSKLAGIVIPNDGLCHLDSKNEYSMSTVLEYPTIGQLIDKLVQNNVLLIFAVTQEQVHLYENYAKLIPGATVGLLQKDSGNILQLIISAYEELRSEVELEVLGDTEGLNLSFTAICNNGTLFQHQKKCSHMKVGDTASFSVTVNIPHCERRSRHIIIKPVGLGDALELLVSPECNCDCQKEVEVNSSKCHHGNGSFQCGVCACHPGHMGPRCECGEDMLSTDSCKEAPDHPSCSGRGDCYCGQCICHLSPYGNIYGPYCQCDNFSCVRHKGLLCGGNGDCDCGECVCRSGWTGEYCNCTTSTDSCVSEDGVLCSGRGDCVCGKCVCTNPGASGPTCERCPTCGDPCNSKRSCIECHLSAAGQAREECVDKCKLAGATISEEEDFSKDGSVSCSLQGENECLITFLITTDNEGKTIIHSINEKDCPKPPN", "assay": "Solid-phase binding assay (ELISA on immobilized integrins), αvβ6", "experimental": "(§3) After washing the plates with PBS‐T buffer (phosphate‐buffered saline/Tween20), free binding sites were blocked by incubation with TS‐B buffer (Tris‐saline/BSA). […] Surface‐bound integrin was detected by subsequent incubation with a specific primary antibody and a secondary peroxidase‐labeled antibody (anti‐mouse IgG‐POD, Sigma–Aldrich). After addition of the dye SeramunBlau (Seramun Diagnostic, Heidesee, Germany) and quenching of the reaction by addition of 3 M H2SO4, the absorbance at λ=450 nm was measured with a microplate reader (Tecan Genius, Männedorf, Switzerland). The IC50 value for each compound was determined in duplicate and the inhibition curves were analyzed by using OriginPro 9.0 software."}, "[4]": {"target": "T2, αvβ8 integrin (Homo sapiens, UniProt P06756+P26012)", "T2 sequence (P06756 31-992 limits assumed)": "as the sequence (P06756 31-992 limits assumed) above", "T2 sequence (P26012 43-684 limits assumed)": "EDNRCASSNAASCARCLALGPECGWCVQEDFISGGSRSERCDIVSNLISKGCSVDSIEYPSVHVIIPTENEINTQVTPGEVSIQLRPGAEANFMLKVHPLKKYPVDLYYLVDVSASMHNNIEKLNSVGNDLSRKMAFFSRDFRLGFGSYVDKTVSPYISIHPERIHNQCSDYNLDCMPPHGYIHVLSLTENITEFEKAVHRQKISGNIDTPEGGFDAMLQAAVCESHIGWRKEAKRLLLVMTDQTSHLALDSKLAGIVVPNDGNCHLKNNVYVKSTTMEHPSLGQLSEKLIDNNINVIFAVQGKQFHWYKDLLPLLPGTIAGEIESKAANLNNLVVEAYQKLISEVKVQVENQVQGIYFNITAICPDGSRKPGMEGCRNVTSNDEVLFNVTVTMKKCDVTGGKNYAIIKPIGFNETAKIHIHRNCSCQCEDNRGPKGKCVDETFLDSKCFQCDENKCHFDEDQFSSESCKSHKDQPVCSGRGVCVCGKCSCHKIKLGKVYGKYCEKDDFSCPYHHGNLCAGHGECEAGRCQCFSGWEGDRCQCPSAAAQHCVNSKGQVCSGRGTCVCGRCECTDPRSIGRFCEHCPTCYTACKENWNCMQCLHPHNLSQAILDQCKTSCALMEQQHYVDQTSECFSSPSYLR", "assay": "Solid-phase binding assay (ELISA on immobilized integrins), αvβ8", "settings": "LAP(TGF-β)-coated plates, non-radioactive 69/71Ga complex, determined in duplicate, referenced to internal standard […], read-out: IC50 (95 % confidence interval) αvβ8", "experimental": "as §3"}, "[5]": {"test_system": "H2009 xenografted SCID mice", "assay": "in vivo", "settings": "mouse", "experimental": "as §1, §2"}, "[6]": {"target": "T2, αvβ8 integrin", "settings": "activity of the internal standard to which measured IC50 values were referenced; cited from earlier work", "from_the_text": "(§4) Table 1 Integrin affinities (expressed as 50 % inhibition concentrations, IC50), IC50‐based selectivities, and octanol/PBS distribution coefficients (log D 7.4)."}, "[7]": {"target": "T1, αvβ6 integrin", "settings": "activity of the internal standard to which measured IC50 values were referenced; cited from earlier work", "from_the_text": "as §4"}, "[8]": {"settings": "%ID/g Tumor H2009 (tumor uptake)"}, "[9]": {"settings": "tumor/organ ratio Heart (myocard)"}, "[10]": {"settings": "tumor/organ ratio Large intestine (empty)"}, "[11]": {"settings": "tumor/organ ratio Small intestine (empty)"}, "[12]": {"settings": "tumor/organ ratio Stomach (empty)"}}, "note": "Read-outs that look alike come from different tables or passages of the source.", "data": [{"compound": "N=C(N)NCCC[C@@H]1NC(=O)CC[C@@H](C(=O)NCCCC[C@H](NC(=O)c2ccc(NC(=O)CN3CCN(CC(=O)O)CCN(CC(=O)O)CC3)cc2)C(N)=O)NC(=O)[C@H](C2CCCCC2)NC(=O)[C@H](CC(=O)O)NC(=O)CNC1=O", "note": "[^68Ga‐NOTA‐SDM17, metal not drawn]", "values": [{"measurement": "logD", "setting": "[1]", "result": "-3.91 ± 0.07"}, {"measurement": "tissue uptake at 1.5 h", "setting": "[2]; %ID/g Adrenals", "result": "0.28 ± 0.09", "unit": "%ID/g"}, {"measurement": "tissue uptake at 1.5 h", "setting": "[2]; %ID/g Blood", "result": "0.64 ± 0.05", "unit": "%ID/g"}, {"measurement": "tissue uptake at 1.5 h", "setting": "[2]; %ID/g Heart (myocard)", "result": "0.2 ± 0.03", "unit": "%ID/g"}, {"measurement": "tissue uptake at 1.5 h", "setting": "[2]; %ID/g Kidneys", "result": "3.74 ± 0.73", "unit": "%ID/g"}, {"measurement": "tissue uptake at 1.5 h", "setting": "[2]; %ID/g Large intestine (empty)", "result": "0.22 ± 0.03", "unit": "%ID/g"}, {"measurement": "tissue uptake at 1.5 h", "setting": "[2]; %ID/g Liver", "result": "0.33 ± 0.04", "unit": "%ID/g"}, {"measurement": "tissue uptake at 1.5 h", "setting": "[2]; %ID/g Lung", "result": "0.47 ± 0.03", "unit": "%ID/g"}, {"measurement": "tissue uptake at 1.5 h", "setting": "[2]; %ID/g Muscle", "result": "0.07 ± 0.01", "unit": "%ID/g"}, {"measurement": "tissue uptake at 1.5 h", "setting": "[2]; %ID/g Pancreas", "result": "0.15 ± 0.02", "unit": "%ID/g"}, {"measurement": "tissue uptake at 1.5 h", "setting": "[2]; %ID/g Small intestine (empty)", "result": "0.22 ± 0.01", "unit": "%ID/g"}, {"measurement": "tissue uptake at 1.5 h", "setting": "[2]; %ID/g Spleen", "result": "0.32 ± 0.06", "unit": "%ID/g"}, {"measurement": "tissue uptake at 1.5 h", "setting": "[2]; %ID/g Stomach (empty)", "result": "0.34 ± 0.06", "unit": "%ID/g"}, {"measurement": "tissue uptake at 1.5 h", "setting": "[2]; %ID/g Tongue", "result": "0.28 ± 0.03", "unit": "%ID/g"}, {"measurement": "tissue uptake at 1.5 h", "setting": "[2]; [8]", "result": "0.66 ± 0.03", "unit": "%ID/g"}, {"measurement": "tissue to tissue ratio at 1.5 h", "setting": "[2]; tumor/organ ratio Adrenals", "result": "2.5 ± 0.7"}, {"measurement": "tissue to tissue ratio at 1.5 h", "setting": "[2]; tumor/organ ratio Blood", "result": "1 ± 0.1"}, {"measurement": "tissue to tissue ratio at 1.5 h", "setting": "[2]; [9]", "result": "3.3 ± 0.6"}, {"measurement": "tissue to tissue ratio at 1.5 h", "setting": "[2]; tumor/organ ratio Kidneys", "result": 0.2}, {"measurement": "tissue to tissue ratio at 1.5 h", "setting": "[2]; [10]", "result": "3.1 ± 0.4"}, {"measurement": "tissue to tissue ratio at 1.5 h", "setting": "[2]; tumor/organ ratio Liver", "result": "2 ± 0.3"}, {"measurement": "tissue to tissue ratio at 1.5 h", "setting": "[2]; tumor/organ ratio Lung", "result": "1.4 ± 0.1"}, {"measurement": "tissue to tissue ratio at 1.5 h", "setting": "[2]; tumor/organ ratio Muscle", "result": "9.7 ± 0.7"}, {"measurement": "tissue to tissue ratio at 1.5 h", "setting": "[2]; tumor/organ ratio Pancreas", "result": "4.4 ± 0.8"}, {"measurement": "tissue to tissue ratio at 1.5 h", "setting": "[2]; [11]", "result": "3 ± 0.1"}, {"measurement": "tissue to tissue ratio at 1.5 h", "setting": "[2]; tumor/organ ratio Spleen", "result": "2.1 ± 0.4"}, {"measurement": "tissue to tissue ratio at 1.5 h", "setting": "[2]; [12]", "result": "2 ± 0.4"}, {"measurement": "tissue to tissue ratio at 1.5 h", "setting": "[2]; tumor/organ ratio Tongue", "result": "2.4 ± 0.3"}]}, {"compound": "N=C(N)NCCC[C@@H]1NC(=O)CC[C@@H](C(=O)NCCCC[C@H](NC(=O)CCc2cn(CCCNC(=O)CCP(=O)(O)CN3CCN(CP(=O)(O)CCC(=O)NCCCn4cc(CCC(=O)N[C@@H](CCCCNC(=O)[C@@H]5CCC(=O)N[C@@H](CCCNC(=N)N)C(=O)NCC(=O)N[C@@H](CC(=O)O)C(=O)N[C@@H](C6CCCCC6)C(=O)N5)C(N)=O)nn4)CCN(CP(=O)(O)CCC(=O)NCCCn4cc(CCC(=O)N[C@@H](CCCCNC(=O)[C@@H]5CCC(=O)N[C@@H](CCCNC(=N)N)C(=O)NCC(=O)N[C@@H](CC(=O)O)C(=O)N[C@@H](C6CCCCC6)C(=O)N5)C(N)=O)nn4)CC3)nn2)C(N)=O)NC(=O)[C@H](C2CCCCC2)NC(=O)[C@H](CC(=O)O)NC(=O)CNC1=O", "note": "[^68Ga‐TRAP(SDM17)3, metal not drawn]", "values": [{"measurement": "logD", "setting": "[1]", "result": "-4.08 ± 0.07"}, {"measurement": "IC50", "setting": "[3]; ELISA, LAP(TGF-β)-coated plates, non-radioactive 69/71Ga complex, determined in duplicate, referenced to internal standard […], read-out: IC50 (95 % confidence interval) αvβ6", "result": 0.26, "unit": "nM"}, {"measurement": "Selectivity for αvβ6 over αvβ8", "setting": "[3]; IC50-based selectivity factor (IC50 αvβ8 / IC50 αvβ6)", "result": 662}, {"measurement": "IC50", "setting": "[4]", "result": 172, "unit": "nM"}, {"measurement": "tissue uptake at 1.5 h", "setting": "[2]; %ID/g Adrenals", "result": "0.16 ± 0.02", "unit": "%ID/g"}, {"measurement": "tissue uptake at 1.5 h", "setting": "[2]; %ID/g Blood", "result": "0.19 ± 0.05", "unit": "%ID/g"}, {"measurement": "tissue uptake at 1.5 h", "setting": "[2]; %ID/g Heart (myocard)", "result": "0.1 ± 0.03", "unit": "%ID/g"}, {"measurement": "tissue uptake at 1.5 h", "setting": "[2]; %ID/g Kidneys", "result": "21.8 ± 2.7", "unit": "%ID/g"}, {"measurement": "tissue uptake at 1.5 h", "setting": "[2]; %ID/g Large intestine (empty)", "result": "0.41 ± 0.09", "unit": "%ID/g"}, {"measurement": "tissue uptake at 1.5 h", "setting": "[2]; %ID/g Liver", "result": "0.34 ± 0.21", "unit": "%ID/g"}, {"measurement": "tissue uptake at 1.5 h", "setting": "[2]; %ID/g Lung", "result": "0.71 ± 0.15", "unit": "%ID/g"}, {"measurement": "tissue uptake at 1.5 h", "setting": "[2]; %ID/g Muscle", "result": "0.1 ± 0.02", "unit": "%ID/g"}, {"measurement": "tissue uptake at 1.5 h", "setting": "[2]; %ID/g Pancreas", "result": "0.07 ± 0.01", "unit": "%ID/g"}, {"measurement": "tissue uptake at 1.5 h", "setting": "[2]; %ID/g Small intestine (empty)", "result": "0.31 ± 0.08", "unit": "%ID/g"}, {"measurement": "tissue uptake at 1.5 h", "setting": "[2]; %ID/g Spleen", "result": "0.58 ± 0.11", "unit": "%ID/g"}, {"measurement": "tissue uptake at 1.5 h", "setting": "[2]; %ID/g Stomach (empty)", "result": "1.04 ± 0.22", "unit": "%ID/g"}, {"measurement": "tissue uptake at 1.5 h", "setting": "[2]; %ID/g Tongue", "result": "0.35 ± 0.09", "unit": "%ID/g"}, {"measurement": "tissue uptake at 1.5 h", "setting": "[2]; [8]", "result": "2.06 ± 0.34", "unit": "%ID/g"}, {"measurement": "tissue to tissue ratio at 1.5 h", "setting": "[2]; tumor/organ ratio Adrenals", "result": "12.5 ± 1.6"}, {"measurement": "tissue to tissue ratio at 1.5 h", "setting": "[2]; tumor/organ ratio Blood", "result": "11.2 ± 1.9"}, {"measurement": "tissue to tissue ratio at 1.5 h", "setting": "[2]; [9]", "result": "21.7 ± 3"}, {"measurement": "tissue to tissue ratio at 1.5 h", "setting": "[2]; tumor/organ ratio Kidneys", "result": 0.1}, {"measurement": "tissue to tissue ratio at 1.5 h", "setting": "[2]; [10]", "result": "5.1 ± 1.2"}, {"measurement": "tissue to tissue ratio at 1.5 h", "setting": "[2]; tumor/organ ratio Liver", "result": "8.7 ± 5.2"}, {"measurement": "tissue to tissue ratio at 1.5 h", "setting": "[2]; tumor/organ ratio Lung", "result": "3 ± 0.4"}, {"measurement": "tissue to tissue ratio at 1.5 h", "setting": "[2]; tumor/organ ratio Muscle", "result": "22.3 ± 6.6"}, {"measurement": "tissue to tissue ratio at 1.5 h", "setting": "[2]; tumor/organ ratio Pancreas", "result": "29.7 ± 3"}, {"measurement": "tissue to tissue ratio at 1.5 h", "setting": "[2]; [11]", "result": "7 ± 1.7"}, {"measurement": "tissue to tissue ratio at 1.5 h", "setting": "[2]; tumor/organ ratio Spleen", "result": "3.6 ± 0.6"}, {"measurement": "tissue to tissue ratio at 1.5 h", "setting": "[2]; [12]", "result": "2 ± 0.4"}, {"measurement": "tissue to tissue ratio at 1.5 h", "setting": "[2]; tumor/organ ratio Tongue", "result": "6.2 ± 1.8"}, {"measurement": "higher tumor uptake than monomer", "setting": "[5]", "result": "threefold"}]}, {"compound": "RTDLDSLRT", "values": [{"measurement": "IC50", "setting": "[6]", "result": 100, "unit": "nM"}, {"measurement": "IC50", "setting": "[7]", "result": 33, "unit": "nM"}]}]}
